Measurements taken from paper PMC6661505.

Key:
Assay in all cases: bead flow cytometry
[1] = biological target: mouse FGFR3b-Fc (mouse, UniProt Q61851-2 21-371)
[2] = biological target: human FGFR3c-Fc (human, UniProt P22607 23-375)
[3] = biological target: human FGFR3b-Fc (human, UniProt P22607-2 23-377)
[4] = biological target: human FGFR1c-His (human, UniProt P11362 22-376)
[5] = biological target: mouse FGFR2c-Fc (mouse, UniProt P21803 22-377)
[6] = biological target: mouse FGFR1c-Fc (mouse, UniProt P16092 22-376)
[7] = biological target: human FGFR2c-His (human, UniProt P21802 22-377)
[8] = biological target: mouse FGFR3c-Fc (mouse, UniProt Q61851 21-369)

Sequence of human FGFR1c-His (P11362 22-376): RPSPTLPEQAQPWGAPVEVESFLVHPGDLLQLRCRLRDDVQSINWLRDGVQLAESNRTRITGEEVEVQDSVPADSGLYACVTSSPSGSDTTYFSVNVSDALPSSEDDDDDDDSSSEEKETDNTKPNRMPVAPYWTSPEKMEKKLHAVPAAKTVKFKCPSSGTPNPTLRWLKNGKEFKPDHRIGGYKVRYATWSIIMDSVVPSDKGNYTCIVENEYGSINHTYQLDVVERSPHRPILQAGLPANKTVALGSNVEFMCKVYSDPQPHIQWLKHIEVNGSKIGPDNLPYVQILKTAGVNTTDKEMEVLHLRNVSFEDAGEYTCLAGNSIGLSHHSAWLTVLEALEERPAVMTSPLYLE
Sequence of mouse FGFR2c-Fc (P21803 22-377): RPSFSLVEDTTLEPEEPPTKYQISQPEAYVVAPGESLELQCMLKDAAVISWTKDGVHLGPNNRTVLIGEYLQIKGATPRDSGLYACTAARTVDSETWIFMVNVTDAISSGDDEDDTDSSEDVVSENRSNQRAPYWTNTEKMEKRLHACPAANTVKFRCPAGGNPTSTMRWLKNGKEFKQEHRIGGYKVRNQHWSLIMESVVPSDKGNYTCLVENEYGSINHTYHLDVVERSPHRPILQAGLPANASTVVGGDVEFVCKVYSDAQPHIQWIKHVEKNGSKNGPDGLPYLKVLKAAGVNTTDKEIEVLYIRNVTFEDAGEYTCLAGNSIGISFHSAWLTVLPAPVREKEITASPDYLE
Sequence of mouse FGFR1c-Fc (P16092 22-376): as the sequence (P11362 22-376) above, with S3A, A15V, F22L, A53V, Q68R, V71I, M128R counted along it
Sequence of human FGFR2c-His (P21802 22-377): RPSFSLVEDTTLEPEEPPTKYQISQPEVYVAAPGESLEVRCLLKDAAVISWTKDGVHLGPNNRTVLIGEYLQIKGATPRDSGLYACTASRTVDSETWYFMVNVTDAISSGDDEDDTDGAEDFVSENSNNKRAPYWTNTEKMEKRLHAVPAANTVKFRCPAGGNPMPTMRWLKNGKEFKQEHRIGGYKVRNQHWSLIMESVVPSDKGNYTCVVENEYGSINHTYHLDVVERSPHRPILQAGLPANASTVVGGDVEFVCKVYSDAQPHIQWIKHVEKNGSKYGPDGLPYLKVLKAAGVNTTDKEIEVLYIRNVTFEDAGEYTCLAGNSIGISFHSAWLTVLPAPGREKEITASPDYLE

B1: iR3 (structured_RNA)
RNA: GCCGAUGGUUUUGUGGCCGUUUGAGGUUCCUACGGC
modifications: 2'-fluoro C and U; 3' inverted dT (not in string)
Kd [1]: ~62 nM | Kd [2]: 55.5 ± 8.4 nM | Kd [3]: ~48 nM | binding result [4]: no binding | binding result [5]: no binding | binding result [6]: no binding | binding result [7]: no binding | Kd [8]: 36.6 ± 7.1 nM
